The conditions of data set [1]: parenteral administration; cited from earlier work.
The test system of a further data set is HUVEC microfilaments. In words: Fluorescent staining of formalin fixed endothelial cells with Alexa 488-labeled rhEndostatin. It is filed as cell-based, human. To be noted: 40 μg/ml Alexa 488-labeled rhEndostatin with anti-tropomyosin TM311; HUVECs. How it is done: (A), HUVECs, (B), HAECs and (C), HMVECs were incubated in the presence of 40 micrograms per milliliter (μg/ml) Alexa 488-labeled rhEndostatin and photographed at 100× magnification under Alexa 488 (green) excitation wavelength. (D) and (E), HUVECs were incubated simultaneously in anti-tropomyosin TM311 ascites fluid and 40 micrograms per milliliter (μg/ml) Alexa 488-labeled rhEndostatin followed by incubation in Alexa 594 conjugated goat anti-mouse IgG (H+L). The same field was photographed under Alexa 488 (green) and Alexa 594 (red) excitation wavelengths at 100× magnification.
HUVECs were incubated in the presence of 40 micrograms per milliliter (μg/ml) Alexa 488-labeled rhEndostatin alone (A), or in the presence of a 50-fold molar excess of control peptide (B), or E37 peptide (C). Cells were photographed using the same exposure times at 100x magnification under Alexa 488 (green) excitation wavelength.
To detect the binding of Alexa-labeled rhEndostatin 1×10^4 HUVEC, HMVEC and HAECs were plated on 1.5% gelatin coated Nalge Nunc Lab Tek II chamber slides (Naperville, Ill.) and fixed in 10% neutral buffered formalin followed by a methanol wash. The chamber slides were incubated in PBS/1% calf serum containing 40 μg/ml (2 μM) of Alexa 488-labeled rhEndostatin (Narum et al., manuscript in preparation) for 1 hr at room temperature. The slides were washed in PBS, coverslips mounted using fluorescent mounting media (Kirkegaard and Perry Laboratories, Gaithersburg, Md.) and cells photographed under Alexa 488 excitation wavelength. Co-localization studies were performed as above except cells were incubated in PBS/1% calf serum containing 1:200 mouse anti-tropomyosin TM311 (Sigma, St. Louis, Miss.) and 40 μg/ml of Alexa 488-labeled rhEndostatin followed by incubation with goat anti-mouse IgG (H+L) conjugated to Alexa 594 (Molecular Probes, Eugene, Oregon). The same fields were photographed under Alexa 488 and Alexa 594 wavelengths. […]

The target of data set [2] is T1, rhTM3 (human tropomyosin isoform 3) (Homo sapiens, UniProt P09493).
T1 construct: made in house; host or cells: E. coli BL21 (DE3), pET-21a(+)
In words: Surface plasmon resonance (BIAcore) binding to immobilized rhTM3. The following applies: steady state model; soluble rhEndostatin over immobilized rhTM3 (3200 RU); 25° C; read-out: dissociation constant (KD) for the rhEndostatin/rhTM3 interaction. How it is done:
(A), 0, 10, 20, 40, 80 and 160 micromolar (μM) of rhEndostatin were injected at 5 microliters per minute (μl/minute) for 960 seconds through a biosensor flow cell that had been activated and blocked as a control for bulk refractive index and subsequently through a flow cell to which 3200 response units (RU) of rhTM3 had been immobilized. The binding kinetics were recorded and the differences between the two curves plotted for each rhEndostatin concentration. (B), 0, 11.5, 23 and 46 micromolar (μM) of rhAngiostatin were injected at 5 microliters per minute (μl/minute) for 900 seconds over a flow cell containing 3200 RU of rhTM3 as above. Samples were run in duplicate, the data corrected for bulk shift and the average of the 2 curves plotted. (C), Injection of 5 micromolar (μM) of rhEndostatin at 5 microliters per minute (μl/minute) for 240 seconds in the presence of 0, 6, 15, 30 and 45 micromolar (μM) of soluble rhTM3 over a flow cell containing 2000 RU of rhTM3. Samples were run in duplicate, the reference cell values subtracted and the average of each of the 2 curves plotted. The spikes in RU seen at the beginning and end of each injection are due to lag in flow caused by the rhTM3 and reference cells being non-adjacent.
Interactions between purified soluble rhEndostatin and rhTM3 were evaluated by surface plasmon resonance using the BIAcore 3000 (BiaCore, Piscataway, N.J.). The purified rhTM3 was immobilized on the flow cell of a CM-5 BIAcore biosensor chip. The running buffer was 0.01 M HEPES, pH 7.4, 0.15M NaCl and 0.005% polysorbate 20 (v/v). The competition experiments involving soluble rhTM3 were performed using PBS pH 7.4 as running buffer. All measurements were performed at 25° C. To correct for differences in bulk refraction all protein preparations were passed over an activated and blocked flow cell to which no protein had been coupled. Effects due to bulk shift were subtracted from experimental data.
Surface plasmon resonance performed using the BIAcore 3000 (BiaCore, Piscataway, N.J.) was used to assess the kinetics of rhEndostatin/rhTM3 binding. […]

Another data set relates to viable HUVECs. In words: Internalization of Alexa Fluor 488 labeled rhEndostatin by viable HUVECs. It is filed as cell-based, human. How it is done: To determine whether live endothelial cells actively internalize Endostatin protein, viable HUVECs were incubated with Alexa Fluor™ 488 labeled rhEndostatin protein. […] Internalized rhEndostatin was rapidly processed such that by 60 minutes, little if any intercellular fluorescence was detected (data not shown).

T1 sequence (P09493 1-284 isoform P09493-3): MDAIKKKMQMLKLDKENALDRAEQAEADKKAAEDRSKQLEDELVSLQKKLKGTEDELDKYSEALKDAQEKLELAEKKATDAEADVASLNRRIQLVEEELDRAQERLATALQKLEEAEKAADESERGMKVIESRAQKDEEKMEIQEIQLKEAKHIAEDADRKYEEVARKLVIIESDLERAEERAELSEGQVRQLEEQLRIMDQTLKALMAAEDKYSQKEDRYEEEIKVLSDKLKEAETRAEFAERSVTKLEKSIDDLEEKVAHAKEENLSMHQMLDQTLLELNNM

B1: rhEndostatin: recombinant human Endostatin, antiangiogenic fragment of a C-terminal non-collagenous region of a collagen protein, produced in P. pastoris (protein)
chain: HSHRDFQPVLHLVALNSPLSGGMRGIRGADFQCFQQARAVGLAGTFRAFLSSRLQDLYSIVRRADRAAVPIVNLKDELLFPSWEALFSGSEGPLKPGARIFSFDGKDVLRHPTWPQKSVWHGSDPNGRRLTESYCETWRTEAPSATGQASSLLGGRLLGQSAASCHHAYIVLCIENSFMTASK
Consider B1, for which the circulating levels entry in data set [1] was “nM range”. In addition, the “localization of fluorescently labeled rhEndostatin in fixed cells” value with HUVEC microfilaments is on record as “co-localized to HUVEC microfilaments”. Moreover, the Kd in data set [2] is about 100 µM. Also, in the data set with viable HUVECs, the “internalization by live endothelial cells” value was “rapidly internalized and translocated predominantly to the nucleus”.

Values taken from US20020077289A1, “Angiostatin and endostatin binding proteins and methods of use” (priority 2000, published 2002).
